From PMC11481066

Target: SARS-CoV-2 spike protein receptor binding domain, Delta variant subvariant Δ1 (B.1.617.2) (UniProt P0DTC2)
Assay: BLI
Details: parent: 168.4

How did the Kd turn out when ab8 nanobody, wild type E127W was run?
Its Kd is 0.59 nM.
